Results: publication PMC5505961

Target: recombinant LHCII (major light-harvesting complex), Lhcb1*2 (AB80) derivative with N-terminal Cys-Cys-Cys motif, C79S and C-terminal His6 tag (pea (Pisum sativum))
Experiment: sucrose density gradient ultracentrifugation; reconstituted monomers trimerized by His6 tag on Ni2+-sepharose columns, then sucrose density gradient (500 mM sucrose, 10 mM Tris-HCl pH 7.5, 5 mM TCEP, 0.05% (w/v) Triton X-100); trimer band collected and checked by CD (negative peak at 474 nm)

stoichiometry N: 3
Substance: recombinant LHCII (major light-harvesting complex), Lhcb1*2 (AB80) derivative with N-terminal Cys-Cys-Cys motif, C79S and C-terminal His6 tag (natural protein)
